T1: EsCas13d, nuclease-dead (Eubacterium siraeum, UniProt B0MS50, R295A;H300A;R849A;H854A)
T1 sequence: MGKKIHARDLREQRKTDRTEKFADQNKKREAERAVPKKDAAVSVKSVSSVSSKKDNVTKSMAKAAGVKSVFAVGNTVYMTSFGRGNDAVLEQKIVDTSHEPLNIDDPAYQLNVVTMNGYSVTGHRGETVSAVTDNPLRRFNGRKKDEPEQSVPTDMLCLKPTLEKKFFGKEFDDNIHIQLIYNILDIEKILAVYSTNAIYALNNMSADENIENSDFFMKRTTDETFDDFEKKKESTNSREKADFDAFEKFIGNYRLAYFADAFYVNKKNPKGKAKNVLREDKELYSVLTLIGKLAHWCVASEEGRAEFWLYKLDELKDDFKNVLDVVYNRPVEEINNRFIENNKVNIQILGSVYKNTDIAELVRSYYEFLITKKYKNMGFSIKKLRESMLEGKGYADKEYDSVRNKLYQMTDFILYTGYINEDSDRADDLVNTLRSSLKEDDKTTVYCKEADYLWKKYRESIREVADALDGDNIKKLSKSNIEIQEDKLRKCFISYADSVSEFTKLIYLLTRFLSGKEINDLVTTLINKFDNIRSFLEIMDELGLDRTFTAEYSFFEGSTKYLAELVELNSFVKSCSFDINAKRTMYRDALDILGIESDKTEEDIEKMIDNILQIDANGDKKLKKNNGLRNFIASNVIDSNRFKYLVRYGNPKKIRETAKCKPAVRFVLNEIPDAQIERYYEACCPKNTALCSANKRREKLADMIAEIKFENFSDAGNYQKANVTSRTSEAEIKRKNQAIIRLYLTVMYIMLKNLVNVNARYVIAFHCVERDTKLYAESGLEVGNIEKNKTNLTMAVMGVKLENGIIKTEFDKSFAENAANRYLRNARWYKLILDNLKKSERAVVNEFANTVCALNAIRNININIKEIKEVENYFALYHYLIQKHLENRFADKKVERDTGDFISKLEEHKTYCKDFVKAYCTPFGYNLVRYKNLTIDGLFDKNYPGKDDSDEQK

B1: target 1 insA 3' of 22,insU 3' of 1 (mixed)
RNA 1: CACCCGUGCAAAAAUGCAGGGGUCUAAAACUGAGCGGAUAACCUCUCUAUGG
RNA 2: GGGAAUGGAUCCACAUCUACGAAUUCGUACACAUAGAGAGGUUAUCCGCUCAUCCGAGAUCGGAAGAGCACACGU
B2: target 1 insA 3' of 12,insU 3' of 7 (mixed)
RNA 1: CACCCGUGCAAAAAUGCAGGGGUCUAAAACUGAGCGGAUAACCUCUCUAUGG
RNA 2: GGGAAUGGAUCCACAUCUACGAAUUCGUACCAUAGAGAGGAUUAUCUCGCUCACCGAGAUCGGAAGAGCACACGU
B3: target 1 insA 3' of 21,insG 3' of 4 (mixed)
RNA 1: CACCCGUGCAAAAAUGCAGGGGUCUAAAACUGAGCGGAUAACCUCUCUAUGG
RNA 2: GGGAAUGGAUCCACAUCUACGAAUUCGUACCAAUAGAGAGGUUAUCCGCGUCACCGAGAUCGGAAGAGCACACGU
B4: target 1 insC 3' of 13,insA 3' of 4 (mixed)
RNA 1: CACCCGUGCAAAAAUGCAGGGGUCUAAAACUGAGCGGAUAACCUCUCUAUGG
RNA 2: GGGAAUGGAUCCACAUCUACGAAUUCGUACCAUAGAGAGCGUUAUCCGCAUCACCGAGAUCGGAAGAGCACACGU
B5: target 1 insA 3' of 15,insU 3' of 6 (mixed)
RNA 1: CACCCGUGCAAAAAUGCAGGGGUCUAAAACUGAGCGGAUAACCUCUCUAUGG
RNA 2: GGGAAUGGAUCCACAUCUACGAAUUCGUACCAUAGAGAAGGUUAUCCUGCUCACCGAGAUCGGAAGAGCACACGU
B6: target 1 A14G,U19A (mixed)
RNA 1: CACCCGUGCAAAAAUGCAGGGGUCUAAAACUGAGCGGAUAACCUCUCUAUGG
RNA 2: GGGAAUGGAUCCACAUCUACGAAUUCGUACCAAAGAGGGGUUAUCCGCUCACCGAGAUCGGAAGAGCACACGU
B7: target 1 U8C,A14C (mixed)
RNA 1: CACCCGUGCAAAAAUGCAGGGGUCUAAAACUGAGCGGAUAACCUCUCUAUGG
RNA 2: GGGAAUGGAUCCACAUCUACGAAUUCGUACCAUAGAGCGGUUACCCGCUCACCGAGAUCGGAAGAGCACACGU
B8: target 1 insA 3' of 15,insC 3' of 10 (mixed)
RNA 1: CACCCGUGCAAAAAUGCAGGGGUCUAAAACUGAGCGGAUAACCUCUCUAUGG
RNA 2: GGGAAUGGAUCCACAUCUACGAAUUCGUACCAUAGAGAAGGUUCAUCCGCUCACCGAGAUCGGAAGAGCACACGU
B9: target 1 U3C,G12U (mixed)
RNA 1: CACCCGUGCAAAAAUGCAGGGGUCUAAAACUGAGCGGAUAACCUCUCUAUGG
RNA 2: GGGAAUGGAUCCACAUCUACGAAUUCGUACCAUAGAGAGUUUAUCCGCCCACCGAGAUCGGAAGAGCACACGU
B10: target 1 insC 3' of 19,insG 3' of 3 (mixed)
RNA 1: CACCCGUGCAAAAAUGCAGGGGUCUAAAACUGAGCGGAUAACCUCUCUAUGG
RNA 2: GGGAAUGGAUCCACAUCUACGAAUUCGUACCAUCAGAGAGGUUAUCCGCUGCACCGAGAUCGGAAGAGCACACGU
B11: target 1 insU 3' of 22,insA 3' of 10 (mixed)
RNA 1: CACCCGUGCAAAAAUGCAGGGGUCUAAAACUGAGCGGAUAACCUCUCUAUGG
RNA 2: GGGAAUGGAUCCACAUCUACGAAUUCGUACUCAUAGAGAGGUUAAUCCGCUCACCGAGAUCGGAAGAGCACACGU
B12: target 1 insA 3' of 19,insA 3' of 3 (mixed)
RNA 1: CACCCGUGCAAAAAUGCAGGGGUCUAAAACUGAGCGGAUAACCUCUCUAUGG
RNA 2: GGGAAUGGAUCCACAUCUACGAAUUCGUACCAUAAGAGAGGUUAUCCGCUACACCGAGAUCGGAAGAGCACACGU
B13: target 1 insG 3' of 16,insU 3' of 2 (mixed)
RNA 1: CACCCGUGCAAAAAUGCAGGGGUCUAAAACUGAGCGGAUAACCUCUCUAUGG
RNA 2: GGGAAUGGAUCCACAUCUACGAAUUCGUACCAUAGAGGAGGUUAUCCGCUCUACCGAGAUCGGAAGAGCACACGU
B14: target 1 insA 3' of 13,insU 3' of 2 (mixed)
RNA 1: CACCCGUGCAAAAAUGCAGGGGUCUAAAACUGAGCGGAUAACCUCUCUAUGG
RNA 2: GGGAAUGGAUCCACAUCUACGAAUUCGUACCAUAGAGAGAGUUAUCCGCUCUACCGAGAUCGGAAGAGCACACGU
B15: target 1 insC 3' of 18,insU 3' of 18 (mixed)
RNA 1: CACCCGUGCAAAAAUGCAGGGGUCUAAAACUGAGCGGAUAACCUCUCUAUGG
RNA 2: GGGAAUGGAUCCACAUCUACGAAUUCGUACCAUACUGAGAGGUUAUCCGCUCACCGAGAUCGGAAGAGCACACGU
B16: target 1 C4G,G15U (mixed)
RNA 1: CACCCGUGCAAAAAUGCAGGGGUCUAAAACUGAGCGGAUAACCUCUCUAUGG
RNA 2: GGGAAUGGAUCCACAUCUACGAAUUCGUACCAUAGAUAGGUUAUCCGGUCACCGAGAUCGGAAGAGCACACGU
B17: target 1 insC 3' of 18,insA 3' of 15 (mixed)
RNA 1: CACCCGUGCAAAAAUGCAGGGGUCUAAAACUGAGCGGAUAACCUCUCUAUGG
RNA 2: GGGAAUGGAUCCACAUCUACGAAUUCGUACCAUACGAGAAGGUUAUCCGCUCACCGAGAUCGGAAGAGCACACGU
B18: target 1 C4U,G5C (mixed)
RNA 1: CACCCGUGCAAAAAUGCAGGGGUCUAAAACUGAGCGGAUAACCUCUCUAUGG
RNA 2: GGGAAUGGAUCCACAUCUACGAAUUCGUACCAUAGAGAGGUUAUCCCUUCACCGAGAUCGGAAGAGCACACGU
B19: target 1 C7G,G12A (mixed)
RNA 1: CACCCGUGCAAAAAUGCAGGGGUCUAAAACUGAGCGGAUAACCUCUCUAUGG
RNA 2: GGGAAUGGAUCCACAUCUACGAAUUCGUACCAUAGAGAGAUUAUGCGCUCACCGAGAUCGGAAGAGCACACGU
B20: target 1 U19G,C21U (mixed)
RNA 1: CACCCGUGCAAAAAUGCAGGGGUCUAAAACUGAGCGGAUAACCUCUCUAUGG
RNA 2: GGGAAUGGAUCCACAUCUACGAAUUCGUACUAGAGAGAGGUUAUCCGCUCACCGAGAUCGGAAGAGCACACGU
B21: target 1 insA 3' of 4,insG 3' of 2 (mixed)
RNA 1: CACCCGUGCAAAAAUGCAGGGGUCUAAAACUGAGCGGAUAACCUCUCUAUGG
RNA 2: GGGAAUGGAUCCACAUCUACGAAUUCGUACCAUAGAGAGGUUAUCCGCAUCGACCGAGAUCGGAAGAGCACACGU
B22: target 1 G5A,G17C (mixed)
RNA 1: CACCCGUGCAAAAAUGCAGGGGUCUAAAACUGAGCGGAUAACCUCUCUAUGG
RNA 2: GGGAAUGGAUCCACAUCUACGAAUUCGUACCAUACAGAGGUUAUCCACUCACCGAGAUCGGAAGAGCACACGU
B23: target 1 insC 3' of 14,insA 3' of 12 (mixed)
RNA 1: CACCCGUGCAAAAAUGCAGGGGUCUAAAACUGAGCGGAUAACCUCUCUAUGG
RNA 2: GGGAAUGGAUCCACAUCUACGAAUUCGUACCAUAGAGACGGAUUAUCCGCUCACCGAGAUCGGAAGAGCACACGU
B24: target 1 U8G,U10C (mixed)
RNA 1: CACCCGUGCAAAAAUGCAGGGGUCUAAAACUGAGCGGAUAACCUCUCUAUGG
RNA 2: GGGAAUGGAUCCACAUCUACGAAUUCGUACCAUAGAGAGGUCAGCCGCUCACCGAGAUCGGAAGAGCACACGU
B25: target 1 insA 3' of 17,insA 3' of 15 (mixed)
RNA 1: CACCCGUGCAAAAAUGCAGGGGUCUAAAACUGAGCGGAUAACCUCUCUAUGG
RNA 2: GGGAAUGGAUCCACAUCUACGAAUUCGUACCAUAGAAGAAGGUUAUCCGCUCACCGAGAUCGGAAGAGCACACGU
B26: target 1 insC 3' of 13,insG 3' of 11 (mixed)
RNA 1: CACCCGUGCAAAAAUGCAGGGGUCUAAAACUGAGCGGAUAACCUCUCUAUGG
RNA 2: GGGAAUGGAUCCACAUCUACGAAUUCGUACCAUAGAGAGCGUGUAUCCGCUCACCGAGAUCGGAAGAGCACACGU
B27: target 1 C6A,U8A (mixed)
RNA 1: CACCCGUGCAAAAAUGCAGGGGUCUAAAACUGAGCGGAUAACCUCUCUAUGG
RNA 2: GGGAAUGGAUCCACAUCUACGAAUUCGUACCAUAGAGAGGUUAACAGCUCACCGAGAUCGGAAGAGCACACGU
B28: target 1 A1G,C22U (mixed)
RNA 1: CACCCGUGCAAAAAUGCAGGGGUCUAAAACUGAGCGGAUAACCUCUCUAUGG
RNA 2: GGGAAUGGAUCCACAUCUACGAAUUCGUAUCAUAGAGAGGUUAUCCGCUCGCCGAGAUCGGAAGAGCACACGU

These binders were tested against T1, EsCas13d, nuclease-dead (assay: crRNA (strand 1, pre-loaded); Mg2+; 40 mM Tris-HCl pH 7.5, 150 mM NaCl, 6 mM MgCl2, 1 mM DTT, 0.1% Tween-20, 0.2 mg/ml BSA; 25 C; 10 min per concentration, then washed). Details: tags: His6-TwinStrep-SUMO cleaved; N-terminal SNAP kept (SNAP-Surface 488); label: 3' end held by stalled T7 RNA polymerase.

Binder	Kd
B1	15 ± 0.9 nM
B2	42 ± 5 nM
B3	14.3 ± 1.1 nM
B4	4.86 ± 0.17 nM
B5	11.3 ± 0.5 nM
B6	91 ± 17 nM
B7	81 ± 14 nM
B8	~80 nM
B9	19.4 ± 1.4 nM
B10	26 ± 1.4 nM
B11	43 ± 5 nM
B12	16.7 ± 1 nM
B13	15.1 ± 1.3 nM
B14	4.3 ± 0.4 nM
B15	57 ± 6 nM
B16	22 ± 8 nM
B17	25.1 ± 1.2 nM
B18	39 ± 4 nM
B19	15.4 ± 1.3 nM
B20	11.1 ± 1.3 nM
B21	7.7 ± 0.6 nM
B22	80 ± 21 nM
B23	70 ± 14 nM
B24	19.8 ± 1.2 nM
B25	8 ± 0.8 nM
B26	28.5 ± 3.4 nM
B27	14.4 ± 0.4 nM
B28	13.9 ± 2.5 nM
